Assay [1] concerns the target T1, full length human GP130 (L2V natural variant) on HEK293/Stat3-luc/gp130-2X Sort cells (human, UniProt P40189 23-918).
T1 construct: whole, on cells; Stably over-expressed on HEK293 cells, sorted twice for high expression; also called HEK293/gp130 2X Sort
T1 sequence (looked up): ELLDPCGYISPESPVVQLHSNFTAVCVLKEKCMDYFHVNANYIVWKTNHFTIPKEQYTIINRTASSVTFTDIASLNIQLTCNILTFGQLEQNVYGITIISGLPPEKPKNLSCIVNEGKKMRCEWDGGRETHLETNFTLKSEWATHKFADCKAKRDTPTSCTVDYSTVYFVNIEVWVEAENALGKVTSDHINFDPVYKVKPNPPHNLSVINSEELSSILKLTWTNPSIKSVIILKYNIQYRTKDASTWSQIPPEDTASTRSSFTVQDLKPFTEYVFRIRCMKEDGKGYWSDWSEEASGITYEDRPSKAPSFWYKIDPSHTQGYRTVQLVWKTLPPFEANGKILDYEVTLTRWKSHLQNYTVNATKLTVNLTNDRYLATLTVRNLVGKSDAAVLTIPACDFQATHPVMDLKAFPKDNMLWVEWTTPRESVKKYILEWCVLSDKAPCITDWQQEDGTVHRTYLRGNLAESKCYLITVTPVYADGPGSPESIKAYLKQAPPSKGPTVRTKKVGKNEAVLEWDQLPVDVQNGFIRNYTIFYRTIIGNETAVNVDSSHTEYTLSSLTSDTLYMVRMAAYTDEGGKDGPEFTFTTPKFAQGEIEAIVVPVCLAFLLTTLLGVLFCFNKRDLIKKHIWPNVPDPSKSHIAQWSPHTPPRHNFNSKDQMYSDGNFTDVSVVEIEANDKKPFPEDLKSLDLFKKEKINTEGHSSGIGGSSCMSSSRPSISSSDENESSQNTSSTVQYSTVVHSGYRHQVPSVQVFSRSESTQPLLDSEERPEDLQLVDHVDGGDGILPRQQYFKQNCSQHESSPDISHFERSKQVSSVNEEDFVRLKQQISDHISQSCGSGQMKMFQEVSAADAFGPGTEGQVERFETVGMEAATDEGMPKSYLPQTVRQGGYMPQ
Description: FACS, 200 nM antibody on HEK293/gp130 2X Sort cells. The procedure: For the FACS analysis, 0.5×10^6 cells/well of HEK293 parental cells, HEK293/Stat3-luc/gp130-2 X Sort cells, and HEK293/hLEPR-GPI cells, were incubated with 200 nM of the conventional antibodies against either GP130 or LEPR or with LEPRxGP130 bispecific antibodies, along with isotype control antibodies at 4° C. in PBS (without calcium and magnesium) containing 2% FBS.
Cells were fixed using BD CytoFix™ (Becton Dickinson, #554655) and analyzed on an IQue® (Intellicyt) Flow Cytometer. Unstained and secondary antibody alone controls were also tested for all cell lines. The results were analyzed using ForeCyt® (IntelliCyt) and FlowJo version 10 softwares to determine the geometric means of fluorescence for viable cells.

The target of assay [2] is T2, human gp130 extracellular domain (E23-E619) with C-terminal mouse IgG2a Fc (human).
T2 construct: dimeric; also called hGP130-mFc; human GP130-mFc
T2 chain: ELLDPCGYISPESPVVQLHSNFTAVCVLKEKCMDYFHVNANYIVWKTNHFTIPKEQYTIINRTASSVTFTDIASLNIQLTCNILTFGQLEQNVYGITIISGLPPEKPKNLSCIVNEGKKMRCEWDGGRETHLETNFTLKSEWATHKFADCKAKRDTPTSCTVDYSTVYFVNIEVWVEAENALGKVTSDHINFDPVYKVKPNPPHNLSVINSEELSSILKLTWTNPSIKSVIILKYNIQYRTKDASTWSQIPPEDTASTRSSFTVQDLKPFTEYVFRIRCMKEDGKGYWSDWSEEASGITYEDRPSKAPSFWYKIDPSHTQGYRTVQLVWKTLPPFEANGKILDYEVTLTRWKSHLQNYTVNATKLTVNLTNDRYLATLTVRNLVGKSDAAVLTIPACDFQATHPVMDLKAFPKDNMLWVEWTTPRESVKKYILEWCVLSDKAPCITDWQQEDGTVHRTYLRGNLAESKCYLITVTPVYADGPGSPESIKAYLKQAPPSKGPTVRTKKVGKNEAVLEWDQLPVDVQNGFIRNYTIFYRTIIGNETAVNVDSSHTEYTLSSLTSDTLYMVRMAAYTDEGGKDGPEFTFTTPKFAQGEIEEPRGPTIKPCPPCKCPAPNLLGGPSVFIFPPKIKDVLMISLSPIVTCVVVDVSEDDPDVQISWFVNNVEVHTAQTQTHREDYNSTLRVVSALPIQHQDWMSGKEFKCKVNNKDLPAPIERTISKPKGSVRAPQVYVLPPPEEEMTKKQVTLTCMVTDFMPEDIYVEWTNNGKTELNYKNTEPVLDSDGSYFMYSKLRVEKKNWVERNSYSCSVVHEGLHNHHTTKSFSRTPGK
Description: blocking ELISA, 2.5 nM hGP130-mFc on plate-bound CNTFR/CNTF complex; * below lower limit of quantitation 1.25E-09M. The procedure:
The experiment was carried out using the following procedure. Human CNTFRα was coated at a concentration of […] in HBSS on a 96-well microtiter plate overnight at 4° C. […] Human CNTF at a concentration of 1 μg/ml in HBSS was added to the plate bound CNTFRα for 1 hour at room temperature. In separate dilution plates, a constant amount of 2.5 nM of human GP130-mFc protein was titrated with antibodies ranging from 3.4 pM to 200 nM in serial dilution and with no antibody present. These solutions were incubated for 1 hour at room temperature (RT) and subsequently transferred to the microtiter plates with CNTFRα/CNTF complex without washing. The plates were incubated for 2 hours at RT, washed with PBST buffer, and plate-bound hGP130-mFc was detected with an anti-mFc polyclonal antibody conjugated with horseradish peroxidase (HRP) (Jackson ImmunoResearch Inc). Samples were developed with a TMB solution (BD Biosciences, substrate A and B mixed at 1:1 ratio as per manufacturer's instructions) to produce a colorimetric reaction and then neutralized with 1M sulfuric acid before measuring absorbance at 450 nm on a Victor X5 plate reader.
Data analysis was performed using a sigmoidal dose-response model within Prism™ software (GraphPad). […]
For orientation: In an ELISA, binding on a coated surface is turned into a signal by an enzyme label.

By IC50 is commonly meant the concentration that gives 50% inhibition.

B1: bsAb21236D (bispecific antibody, V domains shown)
VH 1: QVQLQESGPGLVKPSQTLSLTCTVSGGSISSGGDYWSWIRQLPGKGLEWIGYIYYSGSAYYNPSLKSRGTISIDTSKNQFSLKLTSVTAADTAVYFCVKLRFLEWFLGGWFGPWGQGTLVTVSS
VH 2: QVQLVESGGGLVKPGGSLRLSCAASGFTFSDYYMTWIRQTPGKGLDWVSYISSSGTNKYNADSVKGRFTISRDNAKNSLYLQMNSLRAEDTAVYYCVRDPPWGMDVWGQGTTVTVSS
VL: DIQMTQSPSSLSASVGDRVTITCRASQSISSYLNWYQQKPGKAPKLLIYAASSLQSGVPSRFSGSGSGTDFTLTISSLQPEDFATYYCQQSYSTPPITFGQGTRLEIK
notes: LEPR x GP130 bispecific with common light chain; also called H4H21236D; bsAb21236 (LEPR × GP130)
With B1, the “Binding Ratio, normalized to unstained sample (FL4-A)” value in assay [1] came to 132 fold.

B2: bsAb21237D (bispecific antibody, V domains shown)
VH 1: EVQLVESGGGLVQPGGSLRLSCAASGFTFSNYGMTWVRQAPGKGLEWVSAITGGGGSTYYSNSVKGRFTISRDNSKNTVYLRMNSVRAEDTAVYYCAKYKWNFVDDWGQGTTVTVSS
VH 2: QVQLVESGGGLVKPGGSLRLSCAASGFTFSDYYMTWIRQTPGKGLDWVSYISSSGTNKYNADSVKGRFTISRDNAKNSLYLQMNSLRAEDTAVYYCVRDPPWGMDVWGQGTTVTVSS
VL: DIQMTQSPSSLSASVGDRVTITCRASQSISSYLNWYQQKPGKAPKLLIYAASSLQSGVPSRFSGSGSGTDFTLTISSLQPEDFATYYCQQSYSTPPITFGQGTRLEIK
notes: LEPR x GP130 bispecific with common light chain; also called H4H21237D; bsAb21237 (LEPR × GP130)
As for B2, the “Binding Ratio, normalized to unstained sample (FL4-A)” value in assay [1] came out at 169 fold.

B3: MAb16666 (antibody, V domains shown)
VH: EVQLVESGGGLVQSGGSLRLSCAASGFTFSRYEMNWVRQAPGKGLEWVAYISNTGTTRDYSDSVKGRFTISRDNAKNSLYLQMSSLRVEDTAVYYCVREKFSGTSDWFDPWGQGTLVTVSS
VL: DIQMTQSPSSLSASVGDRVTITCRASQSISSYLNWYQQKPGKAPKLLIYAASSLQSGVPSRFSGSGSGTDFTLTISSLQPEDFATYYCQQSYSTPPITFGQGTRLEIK
notes: hIgG4 isotype control used
Molecule B3 displayed an IC50 in assay [2] of 644 pM.

The values above are taken from US20240158497A1 (published 2024).
